Measured values: patent publication US20010010923A1, “MODIFIED CARBOXYPEPTIDASE” (priority 1997, published 2001)

B1: L178D: carboxypeptidase Y S1 mutant, substitution L178D (protein, UniProt P00729 112-532, looked up, variant L178D)
Carboxypeptidase Y: KIKDPKILGIDPNVTQYTGYLDVEDEDKHFFFWTFESRNDPAKDPVILWLNGGPGCSSLTGLFFELGPSSIGPDLKPIGNPYSWNSNATVIFLDQPVNVGFSYSGSSGVSNTVAAGKDVYNFLELFFDQFPEYVNKGQDFHIAGESYAGHYIPVFASEILSHKDRNFNLTSVLIGNGDTDPLTQYNYYEPMACGEGGEPSVLPSEECSAMEDSLERCLGLIESCYDSQSVWSCVPATIYCNNAQLAPYQRTGRNVYDIRKDCEGGNLCYPTLQDIDDYLNQDYVKEAVGAEVDHYESCNFDINRNFLFAGDWMKPYHTAVTDLLNQDLPILVYAGDKDFICNWLGNKAWTDVLPWKYDEEFASQKVRNWTASITDEVAGEVKSYKHFTYLRVFNGGHMVPFDVPENALSMVNEWIHGGFSL
B2: L245E + W312N: carboxypeptidase Y combination mutant L245E + W312N (protein, UniProt P00729 112-532, looked up, variant L245E W312N)
Carboxypeptidase Y: KIKDPKILGIDPNVTQYTGYLDVEDEDKHFFFWTFESRNDPAKDPVILWLNGGPGCSSLTGLFFELGPSSIGPDLKPIGNPYSWNSNATVIFLDQPVNVGFSYSGSSGVSNTVAAGKDVYNFLELFFDQFPEYVNKGQDFHIAGESYAGHYIPVFASEILSHKDRNFNLTSVLIGNGLTDPLTQYNYYEPMACGEGGEPSVLPSEECSAMEDSLERCLGLIESCYDSQSVWSCVPATIYCNNAQEAPYQRTGRNVYDIRKDCEGGNLCYPTLQDIDDYLNQDYVKEAVGAEVDHYESCNFDINRNFLFAGDNMKPYHTAVTDLLNQDLPILVYAGDKDFICNWLGNKAWTDVLPWKYDEEFASQKVRNWTASITDEVAGEVKSYKHFTYLRVFNGGHMVPFDVPENALSMVNEWIHGGFSL
B3: L178S + W312N: carboxypeptidase Y combination mutant L178S + W312N (protein, UniProt P00729 112-532, looked up, variant L178S W312N)
Carboxypeptidase Y: KIKDPKILGIDPNVTQYTGYLDVEDEDKHFFFWTFESRNDPAKDPVILWLNGGPGCSSLTGLFFELGPSSIGPDLKPIGNPYSWNSNATVIFLDQPVNVGFSYSGSSGVSNTVAAGKDVYNFLELFFDQFPEYVNKGQDFHIAGESYAGHYIPVFASEILSHKDRNFNLTSVLIGNGSTDPLTQYNYYEPMACGEGGEPSVLPSEECSAMEDSLERCLGLIESCYDSQSVWSCVPATIYCNNAQLAPYQRTGRNVYDIRKDCEGGNLCYPTLQDIDDYLNQDYVKEAVGAEVDHYESCNFDINRNFLFAGDNMKPYHTAVTDLLNQDLPILVYAGDKDFICNWLGNKAWTDVLPWKYDEEFASQKVRNWTASITDEVAGEVKSYKHFTYLRVFNGGHMVPFDVPENALSMVNEWIHGGFSL
B4: L178D + W312N: carboxypeptidase Y combination mutant L178D + W312N (protein, UniProt P00729 112-532, looked up, variant L178D W312N)
Carboxypeptidase Y: KIKDPKILGIDPNVTQYTGYLDVEDEDKHFFFWTFESRNDPAKDPVILWLNGGPGCSSLTGLFFELGPSSIGPDLKPIGNPYSWNSNATVIFLDQPVNVGFSYSGSSGVSNTVAAGKDVYNFLELFFDQFPEYVNKGQDFHIAGESYAGHYIPVFASEILSHKDRNFNLTSVLIGNGDTDPLTQYNYYEPMACGEGGEPSVLPSEECSAMEDSLERCLGLIESCYDSQSVWSCVPATIYCNNAQLAPYQRTGRNVYDIRKDCEGGNLCYPTLQDIDDYLNQDYVKEAVGAEVDHYESCNFDINRNFLFAGDNMKPYHTAVTDLLNQDLPILVYAGDKDFICNWLGNKAWTDVLPWKYDEEFASQKVRNWTASITDEVAGEVKSYKHFTYLRVFNGGHMVPFDVPENALSMVNEWIHGGFSL
B5: L178D + W312D: carboxypeptidase Y combination mutant L178D + W312D (protein, UniProt P00729 112-532, looked up, variant L178D W312D)
Carboxypeptidase Y: KIKDPKILGIDPNVTQYTGYLDVEDEDKHFFFWTFESRNDPAKDPVILWLNGGPGCSSLTGLFFELGPSSIGPDLKPIGNPYSWNSNATVIFLDQPVNVGFSYSGSSGVSNTVAAGKDVYNFLELFFDQFPEYVNKGQDFHIAGESYAGHYIPVFASEILSHKDRNFNLTSVLIGNGDTDPLTQYNYYEPMACGEGGEPSVLPSEECSAMEDSLERCLGLIESCYDSQSVWSCVPATIYCNNAQLAPYQRTGRNVYDIRKDCEGGNLCYPTLQDIDDYLNQDYVKEAVGAEVDHYESCNFDINRNFLFAGDDMKPYHTAVTDLLNQDLPILVYAGDKDFICNWLGNKAWTDVLPWKYDEEFASQKVRNWTASITDEVAGEVKSYKHFTYLRVFNGGHMVPFDVPENALSMVNEWIHGGFSL
B6: W312L: carboxypeptidase Y S1 mutant, substitution W312L (protein, UniProt P00729 112-532, looked up, variant W312L)
Carboxypeptidase Y: KIKDPKILGIDPNVTQYTGYLDVEDEDKHFFFWTFESRNDPAKDPVILWLNGGPGCSSLTGLFFELGPSSIGPDLKPIGNPYSWNSNATVIFLDQPVNVGFSYSGSSGVSNTVAAGKDVYNFLELFFDQFPEYVNKGQDFHIAGESYAGHYIPVFASEILSHKDRNFNLTSVLIGNGLTDPLTQYNYYEPMACGEGGEPSVLPSEECSAMEDSLERCLGLIESCYDSQSVWSCVPATIYCNNAQLAPYQRTGRNVYDIRKDCEGGNLCYPTLQDIDDYLNQDYVKEAVGAEVDHYESCNFDINRNFLFAGDLMKPYHTAVTDLLNQDLPILVYAGDKDFICNWLGNKAWTDVLPWKYDEEFASQKVRNWTASITDEVAGEVKSYKHFTYLRVFNGGHMVPFDVPENALSMVNEWIHGGFSL
B7: L178A: carboxypeptidase Y S1 mutant, substitution L178A (protein, UniProt P00729 112-532, looked up, variant L178A)
Carboxypeptidase Y: KIKDPKILGIDPNVTQYTGYLDVEDEDKHFFFWTFESRNDPAKDPVILWLNGGPGCSSLTGLFFELGPSSIGPDLKPIGNPYSWNSNATVIFLDQPVNVGFSYSGSSGVSNTVAAGKDVYNFLELFFDQFPEYVNKGQDFHIAGESYAGHYIPVFASEILSHKDRNFNLTSVLIGNGATDPLTQYNYYEPMACGEGGEPSVLPSEECSAMEDSLERCLGLIESCYDSQSVWSCVPATIYCNNAQLAPYQRTGRNVYDIRKDCEGGNLCYPTLQDIDDYLNQDYVKEAVGAEVDHYESCNFDINRNFLFAGDWMKPYHTAVTDLLNQDLPILVYAGDKDFICNWLGNKAWTDVLPWKYDEEFASQKVRNWTASITDEVAGEVKSYKHFTYLRVFNGGHMVPFDVPENALSMVNEWIHGGFSL
B8: W312N: carboxypeptidase Y S1 mutant, substitution W312N (protein, UniProt P00729 112-532, looked up, variant W312N)
Carboxypeptidase Y: KIKDPKILGIDPNVTQYTGYLDVEDEDKHFFFWTFESRNDPAKDPVILWLNGGPGCSSLTGLFFELGPSSIGPDLKPIGNPYSWNSNATVIFLDQPVNVGFSYSGSSGVSNTVAAGKDVYNFLELFFDQFPEYVNKGQDFHIAGESYAGHYIPVFASEILSHKDRNFNLTSVLIGNGLTDPLTQYNYYEPMACGEGGEPSVLPSEECSAMEDSLERCLGLIESCYDSQSVWSCVPATIYCNNAQLAPYQRTGRNVYDIRKDCEGGNLCYPTLQDIDDYLNQDYVKEAVGAEVDHYESCNFDINRNFLFAGDNMKPYHTAVTDLLNQDLPILVYAGDKDFICNWLGNKAWTDVLPWKYDEEFASQKVRNWTASITDEVAGEVKSYKHFTYLRVFNGGHMVPFDVPENALSMVNEWIHGGFSL

Test: Transpeptidation of Bz-G-A-R-A-R-A-OH (arginine at P1) with H-Leu-NH2, Table 1
Format: biochemical
Settings: [N] 375 mM H-Leu-NH2; 2mM substrate; pH 7.5; [E] 0.1 mg/mL
Experimental: The mutant carboxypeptidase enzvmes used in these studies were produced by site-directed mutagenesis, essentially following the procedures described in published PCT Patent Application No. WO 95/20039. In general, oligonucleotides synthesized to encode the amino acid substitution were used to produce the mutant enzymes.
Transamidation reactions were carried out generally as described in PCT Application WO 95/20039. In general, the method included dissolving the nucleophile (H-Leu-NH2, unless otherwise indicated) in 50 mM HEPES, 5 mM EDTA and adjusting the pH to 7.5, 5 μl of peptide substrate (8 mM Bz-G-A-R-A-R-A-OH, unless otherwise indicated, in methanol) was added to 190 μl nucleophile solution followed by 5 μl enzyme, […]
During the reaction, 20 μl aliquots were removed from the reaction mixture and added to 50 μl 1% trifluoroacetic acid to quench the reaction. The reactant composition was determined by HPLC using a Waters HPLC equipped with a C-18 Waters Novapac 4μ reverse phase column and various gradients of acetonitrile in 0.1% trifluoroacetic acid. The separation was monitored at 254 nm allowing the direct quantification of the products from the integrated peak areas. The composition of the reaction mixture was determined at least twvice during the reaction, the first when 20-50% (preferably 35%) of the substrate had been consumed in the reaction and the second time when 50-90% (preferably 80%) of the peptide substrate had been consumed.
The reaction products were collected and identified by amino acid analysis after acid hydrolysis using a Pharmacia Alpha Plus analyzer. Further identification was obtained by co-chromatography of authentic standard compounds.
The fraction of aminolysis (fa) was expressed as the ratio between the formed aminolysis product and the sum of all products formed. Unconsumed substrate was disregarded in the calculations.

Row | Molecule | fa (fraction of aminolysis)
1 | B1 | 0.81
2 | B2 | 0.20
3 | B3 | 0.63
4 | B4 | 0.71
5 | B5 | 0.71
6 | B6 | 0.07
7 | B7 | 0.45
8 | B8 | 0.23
